The source of these data is US20190055314A1 (ADAGENE, published 2019).

For one experiment, the target named is T1, Hu_CRD2-CRD3-CRD4 (human, UniProt Q07011 46-159, limits assumed).
T1 construct: also called three CRD units (CRD2-CRD3-CRD4) of human CD137
The experiment in a line: flow cytometry, yeast display [Cont.].

The target in a further experiment is T2, Hu_CRD3-CRD4 (human, UniProt Q07011 87-159, limits assumed).
T2 construct: also called two CRD units (CRD3-CRD4) of human CD137
In words: flow cytometry, yeast display [Cont.].

The target of the next experiment is T3, Hu_CRD1-CRD2-CRD3 (human, UniProt Q07011 24-118, limits assumed).
T3 construct: also called three CRD units (CRD1-CRD2-CRD3) of human CD137
The experiment in a line: flow cytometry, yeast display [Cont.].

The target in the next experiment is T4, Hu_FH92AA (human, UniProt Q07011 18-255).
T4 construct: On HEK293F
In words: flow cytometry, HEK293F cells expressing CD137 or mutant [Cont.].

Another experiment concerns the target T5, Hu_FSS53AAA (human, UniProt Q07011 18-255).
T5 construct: On HEK293F
T5 chain: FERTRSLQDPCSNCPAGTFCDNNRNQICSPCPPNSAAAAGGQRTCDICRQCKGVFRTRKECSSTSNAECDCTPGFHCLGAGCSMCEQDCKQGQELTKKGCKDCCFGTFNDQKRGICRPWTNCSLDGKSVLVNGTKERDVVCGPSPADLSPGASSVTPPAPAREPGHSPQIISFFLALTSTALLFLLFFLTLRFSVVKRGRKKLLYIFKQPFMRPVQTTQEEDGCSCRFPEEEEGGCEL
The experiment is described as above.

Another experiment addresses T6, Hu_GTF34AAA (human, UniProt Q07011 18-255).
T6 construct: On HEK293F; also called GFT34AAA
T6 chain: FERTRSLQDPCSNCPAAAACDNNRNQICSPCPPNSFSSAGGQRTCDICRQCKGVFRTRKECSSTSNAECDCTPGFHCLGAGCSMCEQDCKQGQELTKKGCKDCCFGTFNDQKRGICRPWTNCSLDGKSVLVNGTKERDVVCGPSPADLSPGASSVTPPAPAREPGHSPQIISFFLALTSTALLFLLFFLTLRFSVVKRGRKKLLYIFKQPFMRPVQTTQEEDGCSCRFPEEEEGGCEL
The description is as above.

Experiment [1] deals with T7, full-length human CD137 on the cell surface (human, UniProt Q07011 18-255).
T7 construct: also called Human WT
T7 sequence (Q07011 18-255): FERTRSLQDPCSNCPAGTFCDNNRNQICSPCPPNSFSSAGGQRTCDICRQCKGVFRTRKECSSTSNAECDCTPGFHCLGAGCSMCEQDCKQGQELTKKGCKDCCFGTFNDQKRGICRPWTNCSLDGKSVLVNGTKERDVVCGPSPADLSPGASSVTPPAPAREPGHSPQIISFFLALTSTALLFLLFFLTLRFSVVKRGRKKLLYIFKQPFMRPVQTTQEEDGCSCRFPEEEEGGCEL
In words: flow cytometry ligand competition, HEK293F cells with human CD137, antibody 100 nM then 33 nM biotinylated CD137L, streptavidin-Alexa 647.
Method: The plasmid encoding full-length human CD137 was transiently expressed in HEK293F cells. Cells were washed with staining buffer (PBS supplemented with 1% BSA) and resuspended in staining buffer containing 100 nM test antibodies. […] Cells were washed once and analyzed by CytoFlex flow cytometry.

Experiment [2] has as its target T8, full-length mouse CD137 on the cell surface (mouse, UniProt P20334 24-178).
T8 sequence: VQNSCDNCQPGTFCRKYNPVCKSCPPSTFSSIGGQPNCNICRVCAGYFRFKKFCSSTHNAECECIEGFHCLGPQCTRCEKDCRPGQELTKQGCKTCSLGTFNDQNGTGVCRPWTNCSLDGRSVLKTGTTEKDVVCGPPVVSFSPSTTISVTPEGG
The experiment in a line: flow cytometry, HEK293F cells expressing CD137 [Cont.].
Method: The affinity of antibodies were also assessed against human, monkey and mouse CD137 that are transiently expressed on the surface of HEK293F cells. Briefly, HEK293F cells were transfected with a plasmid expressing full-length human, monkey or mouse CD137 from a bicistronic IRES vector, EGFP was used to identify the transfected cells. After 48 hrs, the transfected cells were harvested and then washed once with cold FACS buffer (PBS supplemented with 1% BSA). […] The cells were washed once prior to analysis by flow cytometry (Beckman® CytoFlex).

The target of the next experiment is T9, Hu_TN137AA (human, UniProt Q07011 18-255).
T9 construct: On HEK293F
T9 sequence (Q07011 18-255 T137A/N138A): as the sequence (Q07011 18-255) above, with T120A, N121A counted along it
In words: flow cytometry, HEK293F.

The target of a further experiment is T10, Hu_GQ109AA (human, UniProt Q07011 18-255).
T10 construct: On HEK293F
T10 sequence (Q07011 18-255 G109A/Q110A): as the sequence (Q07011 18-255) above, with G92A, Q93A counted along it
In words: flow cytometry, HEK293F.

Another experiment concerns the target T11, Hu_EL111AA (human, UniProt Q07011 18-255).
T11 construct: On HEK293F
In words: flow cytometry, HEK293F.

Experiment [3] addresses T12, CD40 overexpressed on HEK293F cells (UniProt P25942 21-277, limits assumed).
T12 construct: whole, on cells
In words: flow cytometry, HEK293F cells expressing the receptor, antibody 100 nM.
Method: (§1) The selectivity of antibodies for CD137 was evaluated using flow cytometry analysis of their binding ability to members of TNFR superfamily. The TNFRSF receptors including CD137, OX40, CD40, GITR and CD27 were transiently overexpressed on the surface of HEK293F cells. Transfected cells were washed in pre-chilled staining buffer (PBS supplemented with 2% FBS), then incubated with 100 nM test antibodies for 1 hr on ice. […] Samples were washed once with staining buffer prior to analysis by flow cytometry.

For experiment [4], the target named is T13, GITR overexpressed on HEK293F cells (UniProt Q9Y5U5 26-241, limits assumed).
T13 construct: whole, on cells
T13 sequence (looked up): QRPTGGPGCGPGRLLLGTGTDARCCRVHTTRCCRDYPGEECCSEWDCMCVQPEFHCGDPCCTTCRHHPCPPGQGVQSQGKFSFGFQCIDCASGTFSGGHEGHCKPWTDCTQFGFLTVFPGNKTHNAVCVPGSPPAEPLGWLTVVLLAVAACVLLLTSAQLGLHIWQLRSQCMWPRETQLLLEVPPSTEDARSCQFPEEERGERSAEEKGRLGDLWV
The experiment is described as above.
Method: as §1

For experiment [5], the target named is T14, OX40 overexpressed on HEK293F cells (UniProt P43489 29-277, limits assumed).
T14 construct: whole, on cells
T14 sequence (looked up): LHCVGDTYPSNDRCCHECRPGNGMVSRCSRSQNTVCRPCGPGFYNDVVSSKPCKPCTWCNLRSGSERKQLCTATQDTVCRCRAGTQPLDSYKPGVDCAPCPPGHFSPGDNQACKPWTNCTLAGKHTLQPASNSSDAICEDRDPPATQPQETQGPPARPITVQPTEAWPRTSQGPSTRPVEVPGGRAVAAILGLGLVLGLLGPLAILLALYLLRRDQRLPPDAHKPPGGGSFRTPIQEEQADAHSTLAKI
The experiment is described as above.
Method: as §1

For experiment [6], the target named is T15, mouse CD137 fused with human FC fragment (mouse, UniProt P20334 24-178, limits assumed).
T15 construct: also called mouse CD137-Fc; not shown: human Fc fragment
T15 sequence: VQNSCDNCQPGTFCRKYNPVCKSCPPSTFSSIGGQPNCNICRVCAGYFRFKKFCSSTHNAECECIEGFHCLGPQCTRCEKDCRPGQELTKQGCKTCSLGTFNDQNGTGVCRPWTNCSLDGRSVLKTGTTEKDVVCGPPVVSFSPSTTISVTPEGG
The experiment in a line: ELISA, coated CD137-Fc.

T11 sequence (Q07011 18-255 E111A/L112A): as the sequence (Q07011 18-255) above, with E94A, L95A counted along it
T12 sequence (P25942 21-277 limits assumed): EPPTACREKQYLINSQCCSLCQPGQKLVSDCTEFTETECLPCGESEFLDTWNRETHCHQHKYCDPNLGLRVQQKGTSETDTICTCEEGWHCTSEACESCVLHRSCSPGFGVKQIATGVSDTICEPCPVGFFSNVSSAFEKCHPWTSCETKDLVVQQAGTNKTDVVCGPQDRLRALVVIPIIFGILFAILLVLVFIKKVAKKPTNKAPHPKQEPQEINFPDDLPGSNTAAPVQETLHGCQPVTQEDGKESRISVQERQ
Method for Hu_EL111AA: (§2) Transfected cells were washed in pre-chilled staining buffer (PBS supplemented with 2% FBS), then incubated with 100 nM test antibodies for 1 hr on ice. […] Samples were washed once with staining buffer prior to analysis by flow cytometry.
(§3) To determine the binding regions of the tested antibodies at amino acid residue level, a series of mutations (Table 5) were made at the extracellular domain of human CD137. These CD137 mutation plasmids were used to transfect HEK293F cells.
Method for Hu_FH92AA: as §2, §3
Method for Hu_FSS53AAA: as §2, §3
Method for Hu_GQ109AA: as §2, §3
Method for Hu_GTF34AAA: as §2, §3
Method for Hu_TN137AA: as §2, §3

B1: AG10059 (antibody, human IgG4 S228P, kappa, V domains shown)
VH: EVQLVESGGGLVQPGGSLRLSCAASGYSITSGHYWAWIRQAPGKGLEWVSSISGYGSTTYYADSVKGRFTISRDNSKNTLYLQLNSLRAEDTAVYYCARGGSDAVLGDWFAYWGQGTLVTVSS
VL: DIQLTQSPSSLSASVGDRVTITCRASQGIGSFLAWYQQKPGKAPKLLIYDASNLETGVPSRFSGSGSGTDFTLTISSLQPEDFATYYCQQGYYLWTFGQGTKVEIKR
For B1, the “% in upper right quadrant” value with Hu_CRD2-CRD3-CRD4 came to 0.25%; with Hu_CRD3-CRD4, 0.39%; in the experiment with Hu_CRD1-CRD2-CRD3 it was 49.4%. The Mean was 14900 with Hu_CRD2-CRD3-CRD4; 11700 in the experiment with Hu_CRD3-CRD4; 15100 in the experiment with Hu_CRD1-CRD2-CRD3; 720 in the experiment with Hu_FSS53AAA; 893 with Hu_GTF34AAA. For the same molecule, the binding result is on record as “no binding (tested: 100 nM (as in Example 5))” with Hu_FH92AA; “no binding (tested: 100 nM (as in Example 5))” in the experiment with Hu_FSS53AAA; “no binding (tested: 100 nM (as in Example 5))” in the experiment with Hu_GTF34AAA; “no binding (tested: 100 nM (text paragraph 220))” in experiment [2]; “binds” with Hu_TN137AA; “binds” with Hu_GQ109AA. For the same molecule, the binding result with Hu_EL111AA is on record as “binds”. Also, the “% in upper right quadrant (CD137L signal)” value in experiment [1] was 52.9%. The “Median (APC signal of bound biotinylated CD137L)” value in experiment [1] came out at 46500.

B2: AG10058 (antibody, human IgG4 S228P, kappa, V domains shown)
VH: EVQLVESGGGLVQPGGSLRLSCAASGFSLSTSGVGVGWIRQAPGKGLEWLALIDWDDDKYYSPSLKSRLTISRDNSKNTLYLQLNSLRAEDTAVYYCARGGSDTVLGDWFAYWGQGTLVTVSS
VL: DIQLTQSPSSLSASVGDRVTITCRASQSVSPYLAWYQQKPGKAPKLLIYDASSLESGVPSRFSGSGSGTDFTLTISSLQPEDFATYYCQQGYSLWTFGQGTKVEIKR
Turning to B2, the “% in upper right quadrant” value with Hu_CRD2-CRD3-CRD4 came out at 0.91%; with Hu_CRD3-CRD4, 0.19%; in the experiment with Hu_CRD1-CRD2-CRD3 it was 55.6%. In addition, the Mean in the experiment with Hu_CRD2-CRD3-CRD4 was 7680; with Hu_CRD3-CRD4, 18200; with Hu_CRD1-CRD2-CRD3, 20000; with Hu_FSS53AAA it was 778; in the experiment with Hu_GTF34AAA, 878; in [3] it was 9300. Moreover, the Mean was determined as 18600 in [4] and 189000 in [5]. For the same molecule, the binding result was “no binding (tested: 100 nM (as in Example 5))” with Hu_FH92AA; “no binding (tested: 100 nM (as in Example 5))” with Hu_FSS53AAA; “no binding (tested: 100 nM (as in Example 5))” with Hu_GTF34AAA; “binds” in the experiment with Hu_TN137AA; “binds” in the experiment with Hu_GQ109AA; “binds” with Hu_EL111AA. The “% in upper right quadrant (CD137L signal)” value in experiment [1] was 37.6%. For the same molecule, the “Median (APC signal of bound biotinylated CD137L)” value in experiment [1] came out at 22300. Further, in experiment [6], binding was put at a Kd of 0.3 nM.
